Test results: US6306649

Molecular target: ZFHD1 (Zif268 zinc fingers-Oct1 homeodomain chimera) fused to 3xFKBP (UniProt P08046+P14859)
Assay: cell_activity
Conditions: SEAP reporter in HT1080 cells; rapamycin-dependent, peak at 5 nM; no SEAP without either fusion

Sequence of ZFHD1 (Zif268 zinc fingers-Oct1 homeodomain chimera) fused to 3xFKBP (P08046 whole entry, change not shown, chain 1 of 2, the tested form may be a part): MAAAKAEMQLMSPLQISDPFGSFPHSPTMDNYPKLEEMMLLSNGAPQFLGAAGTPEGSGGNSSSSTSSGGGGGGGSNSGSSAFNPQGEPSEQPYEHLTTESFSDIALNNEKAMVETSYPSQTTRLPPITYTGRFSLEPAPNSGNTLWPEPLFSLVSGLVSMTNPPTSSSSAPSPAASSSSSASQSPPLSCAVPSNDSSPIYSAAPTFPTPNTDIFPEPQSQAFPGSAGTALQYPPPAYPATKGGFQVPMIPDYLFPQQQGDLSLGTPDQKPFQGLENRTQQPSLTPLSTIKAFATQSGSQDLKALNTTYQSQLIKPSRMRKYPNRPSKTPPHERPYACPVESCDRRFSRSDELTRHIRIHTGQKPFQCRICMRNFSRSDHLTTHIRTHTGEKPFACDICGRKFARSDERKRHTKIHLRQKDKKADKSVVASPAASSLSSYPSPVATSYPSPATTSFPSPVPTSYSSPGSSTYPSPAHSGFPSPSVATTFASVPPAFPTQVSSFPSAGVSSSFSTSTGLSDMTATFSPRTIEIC
Sequence of ZFHD1 (Zif268 zinc fingers-Oct1 homeodomain chimera) fused to 3xFKBP (P14859 whole entry, change not shown, chain 2 of 2, the tested form may be a part): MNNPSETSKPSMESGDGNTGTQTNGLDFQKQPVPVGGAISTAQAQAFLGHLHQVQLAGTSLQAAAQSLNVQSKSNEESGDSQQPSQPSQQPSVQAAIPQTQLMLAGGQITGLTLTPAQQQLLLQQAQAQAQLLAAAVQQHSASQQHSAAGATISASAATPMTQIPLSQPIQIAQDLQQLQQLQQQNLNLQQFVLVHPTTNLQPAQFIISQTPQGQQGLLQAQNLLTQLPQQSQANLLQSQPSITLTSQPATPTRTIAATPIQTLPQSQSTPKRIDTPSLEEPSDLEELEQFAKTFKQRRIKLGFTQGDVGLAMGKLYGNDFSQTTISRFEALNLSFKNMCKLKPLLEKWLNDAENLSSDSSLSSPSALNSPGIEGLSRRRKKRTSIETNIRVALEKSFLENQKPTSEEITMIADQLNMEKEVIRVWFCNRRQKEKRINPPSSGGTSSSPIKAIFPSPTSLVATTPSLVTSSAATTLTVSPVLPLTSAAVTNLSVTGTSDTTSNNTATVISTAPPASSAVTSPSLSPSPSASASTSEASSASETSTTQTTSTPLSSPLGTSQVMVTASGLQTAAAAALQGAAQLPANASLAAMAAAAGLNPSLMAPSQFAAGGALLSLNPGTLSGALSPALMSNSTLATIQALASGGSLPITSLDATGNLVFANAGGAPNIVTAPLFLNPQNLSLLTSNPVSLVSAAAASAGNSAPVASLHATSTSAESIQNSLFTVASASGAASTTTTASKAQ

For “GCTAGCTAATGATGGGCGCTCGAGTAATGATGGGCGGTCGACTAATGATGGGCGCTCGAGTAATGATGGGCGTCTAGCTAATGATGGGCGCTCGAGTAATGATGGGCGGTCGACTAATGATGGGCGCTCGAGTAATGATGGGCGTCTAGCTAATGATGGGCGCTCGAGTAATGATGGGCGGTCGACTAATGATGGGCGCTCGAGTAATGATGGGCGTCTAGA (double strand) [12x ZFHD1 binding sites (pZHWTx12)]”, the activity was over 1000 fold.
